In US20240122847A1, “ORAL POLYPEPTIDE FORMULATIONS” (Bhami's Research Laboratory, Pvt. Ltd., priority 2022, published 2024):
Read-outs that look alike come from different tables or passages of the source.

Legend:
[1] = in vivo
[2] = rat, in vivo
Description: Pharmacokinetic analysis was conducted in Female rats weighing 220-250 grams for 2 days. Rats in the oral treatment group was fasted overnight prior to the test sample administration. All the test animals in the treatment groups were administered with respective test formulation to the pre-designated animals. The animal was restrained and its head was held vertically, the jaws were pulled away, the tongue was gently lifted with a forceps followed by placement of a polypeptide formulation as described herein buccally/sublingually. After placing a polypeptide formulation as described herein, the snout was held together for about 1-2 mins to prevent the chewing of the polypeptide formulation. The time of dosage of each animal was noted. Blood samples were collected at aforementioned time points 0 min, 15 min, 30 min, 1 hour, 2 hours, 4 hours, 8 hours, 12 hours, 24 hours, and 48 hours into an EDTA-blood collection tubes for the separation of plasma to determine insulin levels by ELISA. Plasma samples collected at different time points were analyzed by ELISA kit according to ABBEXA protocol. This kit is based on sandwich enzyme-linked immuno-sorbent assay technology. An antibody, anti-insulin was pre-coated onto a 96-well plate. Standards, test samples, and biotin-conjugated reagent were added to the wells and incubated. The HRP-conjugated reagent was then added, and the whole plate was incubated. Unbound conjugates were removed using wash buffer at each stage. TMB substrate was used to quantify the HRP enzymatic reaction. After TMB substrate was added, only wells that contain sufficient INS will produce a blue colored product, which then changes to yellow after adding the acidic stop solution. The intensity of the yellow color is proportional to the INS amount bound on the plate. The Optical Density (OD) was measured spectrophotometrically at 450 nm in a microplate reader, from which the concentration of INS can be calculated.
Insulin was analyzed in plasma using a specific enzyme linked immunosorbent assay (ELISA). Pharmacokinetic endpoints were determined using noncompartmental methods using PK Solutions software. AUC was approximated using the trapezoidal rule on the observed concentrations. C max for each Insulin dose was derived as the maximum of all valid concentrations, and t max was then determined as the corresponding time point to C max. The terminal elimination rate constant (λz) was estimated by log-linear regression on the terminal part of the concentration-time curve, and t ½ was then calculated as t½=ln 2/λz.

[3] = minipig, in vivo
Description: Pharmacokinetic analysis was conducted in Female Minipigs weighing 12±1 kg for 2 days. Pigs in the treatment group were fasted overnight prior to the test sample administration. All the test animals in the treatment groups were administered with respective test formulation to the pre-designated animals. The animal was restrained and its head was held vertically, the jaws were pulled away, the tongue was gently lifted with a forceps followed by placement of a polypeptide formulation as described herein buccally/sublingually. After placing a polypeptide formulation as described herein, the snout was held together for about 1-2 mins to prevent the chewing of the polypeptide formulation. The time of dosage of each animal was noted. Blood samples were collected at aforementioned time points 0 min, 15 min, 30 min, 1 hour, 2 hours, 4 hours, 8 hours, 12 hours, 24 hours, and 48 hours into an EDTA-blood collection tubes for the separation of plasma to determine insulin levels by ELISA. Plasma samples collected at different time points were analyzed by ELISA kit according to ABBEXA protocol. This kit is based on sandwich enzyme-linked immuno-sorbent assay technology. An antibody, anti-insulin was pre-coated onto a 96-well plate. Standards, test samples, and biotin-conjugated reagent were added to the wells and incubated. The HRP-conjugated reagent was then added, and the whole plate was incubated. Unbound conjugates were removed using wash buffer at each stage. TMB substrate was used to quantify the HRP enzymatic reaction. After TMB substrate was added, only wells that contain sufficient INS will produce a blue colored product, which then changes to yellow after adding the acidic stop solution. The intensity of the yellow color is proportional to the INS amount bound on the plate. The Optical Density (OD) was measured spectrophotometrically at 450 nm in a microplate reader, from which the concentration of INS can be calculated.
Insulin was analyzed in plasma using a specific enzyme linked immunosorbent assay (ELISA). Pharmacokinetic endpoints were determined using noncompartmental methods using PK Solutions software. AUC was approximated using the trapezoidal rule on the observed concentrations. C max for each Insulin dose was derived as the maximum of all valid concentrations, and t max was then determined as the corresponding time point to C max. The terminal elimination rate constant (λz) was estimated by log-linear regression on the terminal part of the concentration-time curve, and t ½ was then calculated as t ½=ln 2/λz.

[4] = Pharmacokinetics of hGH in minipigs, sugar truffle buccal/sublingual vs intravenous, plasma hGH ELISA; format: in vivo; conditions: for Mean hGH levels: pigs, plasma
Description: Pharmacokinetic analysis was conducted in Female Minipigs weighing 12±1 kg for 2 days. Pigs in the oral treatment group was either fasted overnight or fed prior to the test sample administration. All the test animals in the treatment groups were administered with respective test formulation to the pre-designated animals. The animal was restrained and its head was held vertically, the jaws were pulled away, the tongue was gently lifted with a forceps followed by placement of a polypeptide formulation as described herein buccally/sublingually. After placing a polypeptide formulation as described herein, the snout was held together for about 1-2 mins to prevent the chewing of the polypeptide formulation. The time of dosage of each animal was noted. […] Plasma samples collected at different time points were analyzed by ELISA kit according to Creative Diagnostics protocol. This kit is based on sandwich enzyme-linked immuno-sorbent assay technology. […] Standards, test samples, and biotin-conjugated reagent were added to the wells and incubated. The HRP-conjugated reagent was then added, and the whole plate was incubated. Unbound conjugates were removed using wash buffer at each stage. TMB substrate was used to quantify the HRP enzymatic reaction.
Pharmacokinetic endpoints were determined using noncompartmental methods using PK Solutions software. AUC was approximated using the trapezoidal rule on the observed concentrations. […] The terminal elimination rate constant (λz) was estimated by log-linear regression on the terminal part of the concentration-time curve, and t ½ was then calculated as t ½=ln 2/X z.

[5] = minipigs, buccal/sublingual hGH formulation
[6] = minipigs, intravenous hGH formulation

Substance: Human Insulin R: peptide/protein hormone structurally identical to human insulin synthesized through rDNA technology; SC marketed liquid or lyophilized microparticles in sugar truffle shell
- bioavailability when compared to SC or IV administration [1]: greater than 7%
- AUC 0-inf/D_obs ([2]; 0.52 mg): 4373.827 mU/L*h/(mg)
- AUC 0-inf/D_pred ([2]; 0.52 mg): 4364.913 mU/L*h/(mg)
- AUC 0-inf_obs ([2]; 0.52 mg): 2274.390 mU/L*h
- AUC 0-inf_pred ([2]; 0.52 mg): 2269.755 mU/L*h
- AUC 0-t ([2]; 0.52 mg): 2204.699 mU/L*h
- AUC t-inf_obs ([2]; 0.52 mg): 69.691 mU/L*h
- AUC t-inf_pred ([2]; 0.52 mg): 65.056 mU/L*h
- Cl/F_obs ([2]; 0.52 mg): 0.000 (mg)/(mU/L)/h
- Cl/F_pred ([2]; 0.52 mg): 0.000 (mg)/(mU/L)/h
- Cmax ([2]; 0.52 mg): 331.520 mU/L
- MRT 0-inf_obs ([2]; 0.52 mg): 11.202 h
- MRT 0-inf_pred ([2]; 0.52 mg): 11.097 h
- MRT 0-t ([2]; 0.52 mg): 9.580 h
- Tmax ([2]; 0.52 mg): 15 min
- Vz/F_obs ([2]; 0.52 mg): 0.003 (mg)/(mU/L)
- Vz/F_pred ([2]; 0.52 mg): 0.003 (mg)/(mU/L)
- t½ ([2]; 0.52 mg): 10.064 h
- AUC 0-inf/D_obs ([2]; sc, 0.087 mg): 6997.06 mU/L*h/(mg)
- AUC 0-inf/D_pred ([2]; sc, 0.087 mg): 6935.40 mU/L*h/(mg)
- AUC 0-inf_obs ([2]; sc, 0.087 mg): 2427.98 mU/L*h
- AUC 0-inf_pred ([2]; sc, 0.087 mg): 2406.58 mU/L*h
- AUC 0-t ([2]; sc, 0.087 mg): 2382.00 mU/L*h
- AUC t-inf_obs ([2]; sc, 0.087 mg): 45.98 mU/L*h
- AUC t-inf_pred ([2]; sc, 0.087 mg): 24.58 mU/L*h
- Cl/F_obs ([2]; sc, 0.087 mg): 0.00 (mg)/(mU/L)/h
- Cl/F_pred ([2]; sc, 0.087 mg): 0.00 (mg)/(mU/L)/h
- Cmax ([2]; sc, 0.087 mg): 332.03 mU/L
- MRT 0-inf_obs ([2]; sc, 0.087 mg): 8.70 h
- MRT 0-inf_pred ([2]; sc, 0.087 mg): 8.26 h
- MRT 0-t ([2]; sc, 0.087 mg): 7.74 h
- Tmax ([2]; sc, 0.087 mg): 30 min
- Vz/F_obs ([2]; sc, 0.087 mg): 0.00 (mg)/(mU/L)
- Vz/F_pred ([2]; sc, 0.087 mg): 0.00 (mg)/(mU/L)
- t½ ([2]; sc, 0.087 mg): 7.21 h
- AUC 0-inf/D_obs ([3]; 2.08 mg): 7418.052 mU/L*h/(mg)
- AUC 0-inf/D_pred ([3]; 2.08 mg): 7439.299 mU/L*h/(mg)
- AUC 0-inf_obs ([3]; 2.08 mg): 2574.064 mU/L*h
- AUC 0-inf_pred ([3]; 2.08 mg): 2581.437 mU/L*h
- AUC 0-t ([3]; 2.08 mg): 2511.461 mU/L*h
- AUC t-inf_obs ([3]; 2.08 mg): 62.603 mU/L*h
- AUC t-inf_pred ([3]; 2.08 mg): 69.975 mU/L*h
- Cl/F_obs ([3]; 2.08 mg): 0.000 (mg)/(mU/L)/h
- Cl/F_pred ([3]; 2.08 mg): 0.000 (mg)/(mU/L)/h
- Cmax ([3]; 2.08 mg): 330.950 mU/L
- MRT 0-inf_obs ([3]; 2.08 mg): 11.492 h
- MRT 0-inf_pred ([3]; 2.08 mg): 11.639 h
- MRT 0-t ([3]; 2.08 mg): 10.214 h
- Tmax ([3]; 2.08 mg): 0.500 h
- Vz/F_obs ([3]; 2.08 mg): 0.002 (mg)/(mU/L)
- Vz/F_pred ([3]; 2.08 mg): 0.002 (mg)/(mU/L)
- t½ ([3]; 2.08 mg): 10.234 h
- AUC 0-inf/D_obs ([3]; sc, 0.347 mg): 3483.581 mU/L*h/(mg)
- AUC 0-inf/D_pred ([3]; sc, 0.347 mg): 3434.617 mU/L*h/(mg)
- AUC 0-inf_obs ([3]; sc, 0.347 mg): 1208.803 mU/L*h
- AUC 0-inf_pred ([3]; sc, 0.347 mg): 1191.812 mU/L*h
- AUC 0-t ([3]; sc, 0.347 mg): 1101.784 mU/L*h
- AUC t-inf_obs ([3]; sc, 0.347 mg): 107.019 mU/L*h
- AUC t-inf_pred ([3]; sc, 0.347 mg): 90.028 mU/L*h
- Cl/F_obs ([3]; sc, 0.347 mg): 0.000 (mg)/(mU/L)/h
- Cl/F_pred ([3]; sc, 0.347 mg): 0.000 (mg)/(mU/L)/h
- Cmax ([3]; sc, 0.347 mg): 316.870 mU/L
- MRT 0-inf_obs ([3]; sc, 0.347 mg): 13.028 h
- MRT 0-inf_pred ([3]; sc, 0.347 mg): 12.134 h
- MRT 0-t ([3]; sc, 0.347 mg): 6.938 h
- Tmax ([3]; sc, 0.347 mg): 2.000 h
- Vz/F_obs ([3]; sc, 0.347 mg): 0.008 (mg)/(mU/L)
- Vz/F_pred ([3]; sc, 0.347 mg): 0.008 (mg)/(mU/L)
- t½ ([3]; sc, 0.347 mg): 19.218 h

Substance: hGH: human growth hormone (human recombinant), Norditropin NordiFlex; lyophilized microparticles in sugar truffle shell
- AUC 0-inf/D_obs [4, 5]: 49506.598 pg·h/mL/mg
- AUC 0-inf/D_pred [4, 5]: 49536.628 pg·h/mL/mg
- AUC 0-inf_obs [4, 5]: 123.766495 ng·h/mL
- AUC 0-inf_pred [4, 5]: 123.84157 ng·h/mL
- AUC 0-t [4, 5]: 118.956091 ng·h/mL
- AUC t-inf_obs [4, 5]: 4.810404 ng·h/mL
- AUC t-inf_pred [4, 5]: 4.885479 ng·h/mL
- AUMC 0-inf_obs [4, 5]: 1203569.518 pg/ml*h^2
- AUMC 0-inf_pred [4, 5]: 1208579.228 pg/ml*h^2
- AUMC 0-t [4, 5]: 882575.168 pg/ml*h^2
- AUMC t-inf_obs [4, 5]: 320994.350 pg/ml*h^2
- AUMC t-inf_pred [4, 5]: 326004.060 pg/ml*h^2
- Cl/F_obs [4, 5]: 0.000 (mg)/(pg/ml)/h
- Cl/F_pred [4, 5]: 0.000 (mg)/(pg/ml)/h
- Clast_obs [4, 5]: 256.840 pg/mL
- Clast_pred [4, 5]: 260.848 pg/mL
- Cmax [4, 5]: 27.12344 ng/mL
- Lambda_z [4, 5]: 0.053 h⁻¹
- MRT 0-inf_obs [4, 5]: 9.725 h
- MRT 0-inf_pred [4, 5]: 9.759 h
- MRT 0-t [4, 5]: 7.419 h
- Tlag [4, 5]: 0.000 h
- Tlast [4, 5]: 48.000 h
- Tmax [4, 5]: 60 min
- Vz/F_obs [4, 5]: 0.000 (mg)/(pg/ml)
- Vz/F_pred [4, 5]: 0.000 (mg)/(pg/ml)
- t½ [4, 5]: 12.982 h
- AUC 0-inf/D_obs [4, 6]: 485023.532 pg·h/mL/mg
- AUC 0-inf/D_pred [4, 6]: 479198.128 pg·h/mL/mg
- AUC 0-inf_obs [4, 6]: 160.057765 ng·h/mL
- AUC 0-inf_pred [4, 6]: 158.135382 ng·h/mL
- AUC 0-t [4, 6]: 154.059131 ng·h/mL
- AUC t-inf_obs [4, 6]: 5.998634 ng·h/mL
- AUC t-inf_pred [4, 6]: 4.076251 ng·h/mL
- AUMC 0-inf_obs [4, 6]: 1696005.242 pg/ml*h^2
- AUMC 0-inf_pred [4, 6]: 1578826.575 pg/ml*h^2
- AUMC 0-t [4, 6]: 1330359.118 pg/ml*h^2
- AUMC 0-t/0-inf_pred [4, 6]: 0.843
- AUMC t-inf_obs [4, 6]: 365646.123 pg/ml*h^2
- AUMC t-inf_pred [4, 6]: 248467.457 pg/ml*h^2
- C0 [4, 6]: 18.14454 ng/mL
- Cl_obs [4, 6]: 0.000 (mg)/(pg/ml)/h
- Clast_obs [4, 6]: 463.040 pg/mL
- Clast_pred [4, 6]: 314.650 pg/mL
- Cmax [4, 6]: 22.5132 ng/mL
- Lambda_z [4, 6]: 0.077 h⁻¹
- MRT 0-inf_obs [4, 6]: 10.596 h
- MRT 0-inf_pred [4, 6]: 9.984 h
- MRT 0-t [4, 6]: 8.635 h
- Tlast [4, 6]: 48.000 h
- Tmax [4, 6]: 30 min
- Vss_obs [4, 6]: 0.000 (mg)/(pg/ml)
- Vz_obs [4, 6]: 0.000 (mg)/(pg/ml)
- t½ [4, 6]: 8.980 h
- Mean hGH levels ([4]; GI- IV, time 0 hrs): 18144.54 ± 1619.64 pg/mL
- Mean hGH levels ([4]; GI- IV, time 0.08 hrs): 20014.87 ± 620.32 pg/mL
- Mean hGH levels ([4]; GI- IV, time 0.5 hrs): 22513.2 ± 562.85 pg/mL
- Mean hGH levels ([4]; GI- IV, time 1 hrs): 22130.7 ± 728.54 pg/mL
- Mean hGH levels ([4]; GI- IV, time 4 hrs): 14910.13 ± 2908.87 pg/mL
- Mean hGH levels ([4]; GI- IV, time 8 hrs): 1159.19 ± 226.15 pg/mL
- Mean hGH levels ([4]; GI- IV, time 24 hrs): 1495.55 ± 291.77 pg/mL
- Mean hGH levels ([4]; GI- IV, time 48 hrs): 463.04 ± 90.34 pg/mL
- Mean hGH levels ([4]; GII- Buccal/sublingual, time 0 hrs): 20672.24 ± 1140.76 pg/mL
- Mean hGH levels ([4]; GII- Buccal/sublingual, time 0.08 hrs): 18582.31 ± 1303.34 pg/mL
- Mean hGH levels ([4]; GII- Buccal/sublingual, time 0.5 hrs): 26137.66 ± 4718.88 pg/mL
- Mean hGH levels ([4]; GII- Buccal/sublingual, time 1 hrs): 27123.44 ± 382.69 pg/mL
- Mean hGH levels ([4]; GII- Buccal/sublingual, time 4 hrs): 2681.8 ± 1281.33 pg/mL
- Mean hGH levels ([4]; GII- Buccal/sublingual, time 8 hrs): 2208.63 ± 86.73 pg/mL
- Mean hGH levels ([4]; GII- Buccal/sublingual, time 24 hrs): 971.98 ± 38.36 pg/mL
- Mean hGH levels ([4]; GII- Buccal/sublingual, time 48 hrs): 256.84 ± 13.49 pg/mL
